Consider one molecule from PMC7097325.

The target in the data set is Influenza A nucleoprotein (NP), wild type (Influenza A virus A/WSN/33 (H1N1), UniProt P15682 1-498). The data set is described as follows: EMSA. Background: A gel shift assay detects complexes by their altered migration in electrophoresis.

As for UUUGUUACACACACACACGCUGUG (ssRNA) [24-nt RNA oligomer], the binding result is “binds”.
